Experimental data taken from the DeepSol protein solubility set.

Experiment: soluble on expression in E. coli; label from the status in PepcDB or PDB records

Row | Sequence | soluble on expression in E. coli
1 | GYKKIPKKKLKDLMVELYVADGHFANIYDPKLTDSVREAVYTNLFAKYGTTRMDYDSTLMWYGRHDLEEYIAICQSVRDELEKQRIDLDKQITLEREKKGMDMLDGSFYELDSINMLAGDSTCFYRPEMPFLNRSFIITPGTAYKEGTRLEFVTRLRGLQLRPDATMEMFLQLVCTDNTVLTVSRPVNPGINMLTTSVPDSASVSRVYGYLRGFPDSAGIMSLSPFVIDSFSLRKF | not soluble
2 | MGSDKIHHHHHHMTDPRILSLQQAVPALRLKTEPADLEHYGRDWTRRWTPNPLAIALPGSVEEVQAVVRWANTHAVAVVPSGGRTGLSGGAVAANGELVLSLERLNKPLAFDAVDRTLTVQAGMPLEAVHNAAREHGLVYPVDFAARGSCSIGGNIATNAGGIRVIRYGNTREWVAGLSVVTGTGELLHLNNALVKNSSGYDFRHLMIGSEGTLGIVVEATLRLTDPPPPSNVMLLALPSFDVLMQVFAAFRAQLRLEAFEFFTDRALEHVLAHGAQAPFAEVHPYYVVTEFAAGDEAQEAAAMAAFEACMEQGWVSDGVISQSDAQAAQLWRLREGITEALARYTPYKNDVSVRISAMPAFLAETQALLHDAYPHFDVVWFGHIGDGNLHINVLKPDATSQADFITACEQVTKLLAQSLQRFDGSISAEHGIGLVKKPYLWSTRSAAEIALMRGIKHVLDPHLLLNPGKLFDMDEVPGATPAG | not soluble
3 | MSLNARSYLEQQLTGQNANAANALALAITQSQADKAMAETLINATFDQGYFHHIRWQGADGKVRVDRVNEAVFPAAPGWFRALLPLSPQPGSALVTAGWMQAGEIRVEAALGYAYESLWRGALQTMLWLLGTGLLAGLLGSIDIFKLRRDLQRVVNQARAISEHRFQRMTEPKVPELARVVGAMNQMVERLQSFLGEQSEEVEQLRRERHTDPVTGLPNREALEQAVSSTLAEEDDVRGCLLLLRLAGLAELNQRLGGERADALLVRLAADLEDLAARRKGWMAARLRGADFAVFCPELDMDGGRQLAETLCEQLALYRQMGLSDRDGIGHIGVCGIVQGDGLASLLARASQALAEAEAAGDNQWRVDDGAGPDVGSEWDWRELIEAACREHSEGHHHHHH | soluble
4 | MSLKANNLLSQFGDHRQRVQSAITAVCEGRGILLVDDENRENEGDLIFSAQSMTEADMAIMIRHCSGIVCLCITEEKARQLNLPLMVEQNTSKYGTAFTISIEAAEGVTTGVSAADRIQTIRTAIAPNATPESLHHPGHIFPLIARSGGIKERSGHTEGSIDLMKLAGLAPCAVLCELTNDDGTMARLPEIIKFGLEHKYPVVTINDLKEYQTAPDFLPKLVGSFSCPAAENPTTAIMEAAFRHHYMHYRYINCEVGPENLAAAIQGAKAMGWRGFNCSLPNKVEIIRYLDELGESAKIIGAVNTVVIGDDQRATGENTDGKGFVKAISEIITIQDKKIALLGAGGAARAIAVEMALAGVKEITILNRNRDKGQALADLLNSQTVATARFVLWDHPYRFSTDIDIVINATSVGLYSNVDQRLNIDTDTLLPHMVVADCIPNPVYTQLLRDAVRRGCCHVLPGMKMLVYQAVIAIKYWSGVDVDPDIMLEKLKEVVKEGHHHHHH | soluble
5 | MDVLVTAGGTSEPIDNVRSITNHSSGGLGKAIAESFLAAGHTVTYVTTKHALRPTQQLDLSIKEIETTVELATTLEQLFAEKQFDAIVHAMAVSDFTTETAQTEEQFIDSFAQQLSEQTLPKTKEALVTIVQNTLNQIADIPQTATKISSDTDRLLIFLKKNPKVIQMIRDKQPQTVLVGFKLLVNVSQEELVQVAQAALVKNRCDFVLANDLMNVHETEHKGLLINETGIVQEAYSKQGIGSMIVKNVEKKWREQQ | not soluble
6 | MGSDKIHHHHHHMAEFPASLLILNGKSTDNLPLREAIMLLREEGMTIHVRVTWEKGDAARYVEEARKFGVATVIAGGGDGTINEVSTALIQCEGDDIPALGILPLGTANDFATSVGIPEALDKALKLAIAGDAIAIDMAQVNKQTCFINMATGGFGTRITTETPEKLKAALGSVSYIIHGLMRMDTLQPDRCEIRGENFHWQGDALVIGIGNGRQAGGGQQLCPNALINDGLLQLRIFTGDEILPALVSTLKSDEDNPNIIEGASSWFDIQAPHDITFNLDGEPLSGQNFHIEILPAALRCRLPPDCPLLR | not soluble
7 | EVQLVESGGGLVQPGGSLRLSCAASGFTFSDYGIAWVRQAPGKGLEWVAFISDLAYTIYYADTVTGRFTISRDNSKNTLYLQMNSLRAEDTAVYYCARDNWDAMDYWGQGTLVTVSSASTKGPSVFPLAPSSKSTSGGTAALGCLVKDYFPEPVTVSWNSGALTSGVHTFPAVLQSSGLYSLSSVVTVPSSSLGTQTYICNVNHKPSNTKVDKKVEPKSCDKTHTC | soluble
8 | MRGSHHHHHHTDPALRASVRLVLAKGREKSLLRRHPWVFSGAVARMEGKASLGETIDIVDHQGKWLARGAYSPASQIRARVWTFDPSESIDIAFFSRRLQQAQKWRDWLAQKDGLDSYRLIAGESDGLPGITIDRFGNFLVLQLLSAGAEYQRAALISALQTLYPECSIYDRSDVAVRKKEGMELTQGPVTGELPPALLPIEEHGMKLLVDIQHGHKTGYYLDQRDSRLATRRYVENKRVLNCFSYTGGFAVSALMGGCSQVVSVDTSQEALDIARQNVELNKLDLSKAEFVRDDVFKLLRTYRDRGEKFDVIVMDPPKFVENKSQLMGACRGYKDINMLAIQLLNEGGILLTFSCSGLMTSDLFQKIIADAAIDAGRDVQFIEQFRQAADHPVIATYPEGLYLKGFACRVMGLCGR | soluble
9 | MGSDKIHHHHHHVTSVSLGMPSAPPPVLAPRRKTRQIKVGSVGVGSDSPISVQSMTTTPTTDINATLQQIAELTASGCDIVRVACPSADDAEALPIIARKSQIPVIADIHFQPKYVFAAIEAGCAAVRVNPGNIRKFDDQVKEIARAAKDHGTSIRIGVNAGSLEPGILKKYGKATPEALVESAVWEASLFEEHGFHDFKISVKHNDPVIMVAAYEMLAEKGDWPLHLGVTEAGPAFQGTIKSATAFGALLSRGIGDTIRVSLSAPPVEEIKVGNQILQSLNLRPRKLEIVSCPSCGRAQVDVYTLAEQVTAGLEGMEIPLRVAVMGCVVNGPGEAREADLGVASGNGKGQIFVKGEVIKTVPESEIVETLIEEAMRIAEEMGEADGEDAVKGSPVVSVS | not soluble
10 | METPETRFCKESKVVKTSRVFPLDTNNHNTLFGGKLMSYIDDIASISAARHCRRETVTASMDSVDFLKPIGQKDSVCLESYVTWVGTSSMEVFVKVIKEHLMTGERELAATSFLTFVALDSNGKPVPVPRVVPETEEEIMLHNTAVQRANERKNRKRHSQALANALGTDKPWVNVKPKTLEHHHHHH | not soluble
11 | MDSLQKTTMIDLLLRSDKRRKILLFLKEGPKNIEEITALLGSSCTAVLPQMKKLIEKGLVRQENKIYRLSTVGMIVTEKLVPLLGTIEVFENNLEYWAQKDLTGIPAFLRLKLEMLSQYEVIEPQLNRMFEPPEEFINSLKKSTEIMYFSSFFQPCFSGFDQDFLKKRTDSTFIFTKNFFERISSPHSEEYDELLLPERANLYVYDGISSLVSLTVTERFMALMLLNKKGKLDQNLLISSESEAIEWGKELFMYYREISKKIYGDKADRLLSEKIIPPGKKSGYGTGSDLLQISCLRKTKYKMAAALEHHHHHH | not soluble
12 | MAHHHHHHMDDERTTAAGRITSTNVREEEPSITVPCELDTHIEQHERRKRGRVWTAEEQAAYWREKKEKQRQRKKAAAAERREMQQKEWEALSQSERERRRAEAIAVHEKRRGAEMRLQQLCQEHLADAKLPVLVFDLSFAWCMNASDCRSTVSQVKLSYSALRRHAFPLRPVITSIGGSADGEMACAHSDVLQSLCTFNGFSRYPLPVHENHWSSLYDLQRVVFLTADAEVVLERIEQGTVYIVGAFVDHNARKFLTRDAAIRYGVRMARLPIDESIKVGNICKVLTVNHVVDVLCRYTECGDWSTAFDVLPTRRTVSRRERRTNAHISMSSNTVFGECDSVDTDETGGTTRVASGQAD | not soluble
13 | MVQTVLNSVWLWRSVLLRLTFSDSGSFLGQSFLLFSSGFWSVLVEQLEGFSSGVSVQSVLELSNGWRNLQSDGQDLLLSLQSDIFWPFDVSGQVSLWLDSLANTEVLWSRVSQWVLSLVRLSGLSTEWSWSNFLTWSHLFFQLSCSLY | soluble
14 | MRTVALGIVAMACLVAIAHGGNFFQDAEVSWGQGRGKIVDGGRGLDLTLDRSSGSGFQSKSEYLFGKIDMQIKLVPGGWWNQELSDMSYRRMRWVQRKFMIYNYCTDAKRFPQGTPAECKLR | not soluble
15 | GAMSSIFINREYLLPDYIPDELPHREDQIRKIASILAPLYREEKPNNIFIYGLTGTGKTAVVKFVLSKLHKKFLGKFKHVYINTRQIDTPYRVLADLLESLDVKVPFTGLSIAELYRRLVKAVRDYGSQVVIVLDEIDAFVKKYNDDILYKLSRINSEVNKSKISFIGITNDVKFVDLLDPRVKSSLSEEEIIFPPYNAEELEDILTKRAQMAFKPGVLPDNVIKLCAALAAREHGDARRALDLLRVSGEIAERMKDTKVKEEYVYMAKEEIERDRVRDIILTLPFHSKLVLMAVVSISSEENVVSTTGAVYETYLNICKKLGVEAVTQRRVSDIINELDMVGILTAKVVNRGRYGKTKEIGLAVDKNIIVRSLIESDSRFADLWS | soluble
16 | MGSDKIHHHHHHMFLSPYFLKQNQSISVSAQQASDFAKKIAQDFNPIHDVGAKRFCVPGDLLFALVLTQYGLSQSMKFTFAGMVGDGVELQFPEQVNDSFSICDNRDKTYLNVSRLGDISRCDAQTESFIRHYVAFSGHNFIDILMPLMKQHQVMINPDRPLVIYESMSFDLTTLDFVEVQLSLVQQELKIDGKRGDVTLHFELHSGDTLVGTGIKTLVMSGLRAYEEDQVQQMCAAYEGRKTDF | not soluble
17 | SLQTNKASTGLKTDQSFNNSLSESVKLKEIADIYPTNTNFLTGIGIVAGLAGKGDSIKQKDLIIKILEENNIINEIGSNNIESKNIALVNVSLQVKGNTIKGSKHKACVASILDSKDLTNGILLKTNLKNKEGEIIAIASGITQPNNKLKGSGYTIDSVIINENQNINHSYNIILKKGNYTLINRIHKILTSKKINNKIKSDSTIEIEAKNISLLEEIENIKIETNPKILIDKKNGIILASENAKIGTFTFSIEKDNQNIFLSKNNKTTIQVNSMKLNEFILKNSNNLSNKELIQIIQAAQKINKLNGELILEEIDGNQN | soluble
18 | PLGVSAAGALDRASLRRANRLVGNASSAAAIESVNGGLTVEAVGDQVIAVTGAPTTLTIESPSWVGSDDDDGGARPGGKRTVPMAAPFALLDGELLTLGAPESGFRNYVAIRGGVDAPEVLGSRSADTMSGIGPAPLAIRQVLATGEQTASTAVGAPELQPDFPGAGVTVLDVVPGPRADWFDQEALDSLCNQEWLVTPQSNRVGMRLDGKPLERTREGELPSEGTMAGALQIPPAGLPVLFLADHPITGGYPVIGVVRDEHLDRAAQVPIGGRIRFRLVPDSADFTTTTTKTPEK | not soluble
19 | GMTISRNYDQEIKDTAGHKYAYNFDFDVMHPFMVRAFTPFFRPGNLLELGSFKGDFTSRLQEHFNDITCVEASEEAISHAQGRLKDGITYIHSRFEDAQLPRRYDNIVLTHVLEHIDDPVALLKRINDDWLAEGGRLFLVCPNANAVSRQIAVKMGIISHNSAVTEAEFAHGHRCTYALDTLERDASRAGLQVTYRSGIFFKALANFQWDQILQTDILSKEYLDGCYQLGQQYPDLCASIFLLCEKGINQ | soluble
20 | MQSTIRKQLLQVFSEADGEFVSGQTISDKLGCSRTAVWKHMEDLRNEGYELEAVRRLGYRIASKPDKVTANEIQLGLQTKHIGRTVYFEESVESTQHIAAKLAYEGAEEGTIVVAEEQTAGRGRLSRKWHSPKGTGIWMSIILRPSIPVHHAPQLTLLAAVSVAQAIEKCTGVNVGIKWPNDILIQGKKAVGILTEMQADPDKINAVIMGIGINANQKQEHFDEEIQHIATSLAIESGKPIVRAELMQQIFLQLEKLYEEYLQNGFSVIKILWESYAVSIGKEINARTMRETITGVAKGITEDGVLLLEDHEGKVHHIHSADIEIK | not soluble
